# Test results reported in publication PMC6298731, “Functional and structural similarity of human DNA primase [4Fe4S] cluster domain constructs”.
# B1: FA substrate: 12 nt RNA-primed 22 nt DNA template (DNA:RNA)
# RNA: GGACCUCCAGGA
# DNA: AAACTCCTGGAGGTCCAACATA
# modifications: 5'-triphosphate on RNA primer (RNA printed with T as S5; written here with U)
# B2: MST/FI substrate: 8 nt RNA-primed 18 nt DNA template (DNA:RNA)
# RNA: GGCUCGGA
# DNA: AAACTCCGAGCCAACATA
# modifications: 5'-triphosphate on RNA primer
# How the values were obtained:
# [1] = target: T1, p58C272-464 (DNA primase regulatory subunit C-terminal domain) (human, UniProt P49643 272-464); experiment: fluorescence anisotropy; 20 mM MES pH 6.5, 50 mM NaCl, 2 mM DTT (plus 0.05% Tween for FI), 50 nM substrate, 25 C; 15 min incubation at room temperature; settings: protein: recombinant; tags: 6xHis tag cleaved with H3C protease; label: 5'-6FAM on DNA template (S4 Dataset says FITC); 12 bp RNA-DNA hybrid; template 5' overhang 4 nt and 3' overhang 6 nt
# T1 sequence: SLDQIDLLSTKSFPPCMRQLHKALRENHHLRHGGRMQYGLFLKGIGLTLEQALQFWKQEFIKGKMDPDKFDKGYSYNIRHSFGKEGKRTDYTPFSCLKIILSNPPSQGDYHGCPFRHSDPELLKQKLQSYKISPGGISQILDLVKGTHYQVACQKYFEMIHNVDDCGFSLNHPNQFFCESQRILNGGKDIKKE
# [2] = target: T2, p58C266-464 (DNA primase regulatory subunit C-terminal domain) (human, UniProt P49643 266-464); experiment: as above; settings: protein: recombinant; tags: 6xHis tag cleaved with H3C protease; label: 5'-6FAM on DNA template (S4 Dataset says FITC); 12 bp RNA-DNA hybrid; template 5' overhang 4 nt and 3' overhang 6 nt
# T2 sequence: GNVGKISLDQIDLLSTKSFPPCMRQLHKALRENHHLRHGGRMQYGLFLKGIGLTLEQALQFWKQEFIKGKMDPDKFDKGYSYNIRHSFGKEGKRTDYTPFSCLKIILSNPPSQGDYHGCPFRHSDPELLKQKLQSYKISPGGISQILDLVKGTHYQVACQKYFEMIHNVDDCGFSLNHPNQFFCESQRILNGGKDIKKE
# [3] = target: T1, p58C272-464 (DNA primase regulatory …); experiment: fluorescence intensity (Monolith MST instrument); 20 mM MES pH 6.5, 50 mM NaCl, 2 mM DTT (plus 0.05% Tween for FI), 50 nM substrate, 25 C; 15 min incubation at room temperature; settings: protein: recombinant; tags: 6xHis tag cleaved with H3C protease; label: 5'-Cy5 on DNA template; 8 bp RNA-DNA hybrid; template 5' overhang 4 nt and 3' overhang 6 nt
# [4] = target: T2, p58C266-464 (DNA primase regulatory …); experiment: as above; settings: protein: recombinant; tags: 6xHis tag cleaved with H3C protease; label: 5'-Cy5 on DNA template; 8 bp RNA-DNA hybrid; template 5' overhang 4 nt and 3' overhang 6 nt
Binder,Kd [1] [µM],Kd [2] [µM],Kd [3] [µM],Kd [4] [µM]
B1,3.6 ± 0.1,2.1 ± 0.1,–,–
B2,–,–,2.7 ± 0.3,3.4 ± 0.5
